The record followed here is paper PMC5909430 (Nucleic Acids Research, 2018).

The target in assay [1] is T1, LeishIF4E-1 (Leishmania cap-binding isoform 1) (Leishmania major, UniProt E9ADE1 1-214).
T1 sequence (looked up): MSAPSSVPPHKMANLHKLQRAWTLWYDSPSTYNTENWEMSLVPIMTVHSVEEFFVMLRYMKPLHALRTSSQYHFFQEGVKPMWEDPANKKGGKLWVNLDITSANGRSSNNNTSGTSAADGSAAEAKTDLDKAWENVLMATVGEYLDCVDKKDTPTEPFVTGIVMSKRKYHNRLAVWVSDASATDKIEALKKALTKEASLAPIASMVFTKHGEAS
Nature of the assay: ITC. (In general: ITC needs no label: the signal is the heat of the interaction.)

For another assay, the target named is human eIF4E (human, UniProt P06730 1-217).

Usually Kd stands for the concentration at which binding is half-saturated. High values mean weaker binding, low ones tighter binding.

human eIF4E, sequence (P06730 whole entry): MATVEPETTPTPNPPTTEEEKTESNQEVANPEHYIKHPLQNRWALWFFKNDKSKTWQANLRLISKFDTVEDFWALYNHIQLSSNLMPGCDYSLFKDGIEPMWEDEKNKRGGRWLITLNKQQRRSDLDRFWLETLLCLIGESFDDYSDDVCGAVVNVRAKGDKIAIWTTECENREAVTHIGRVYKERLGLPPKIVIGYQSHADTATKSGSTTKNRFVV

B1: Leish4E-IP1_(1–100) (domain or fragment, Leishmania major, UniProt E9AFM3 1-100, looked up)
chain: MPSVRTMYTREELLRIATLASAMDLGPEVLRKFDVIEVAEPVPTPKRRDAESNFKGSVFTDNFSTSTTITNLGPNGGGNSGGKGGHNSGMNGGGSSSNHP
Turning to B1, in assay [1], the Kd stood at 87 nM and the dH was -3.11 ± 0.0804 kcal/mol.

B2: Leish4E-IP1 (construct not stated; data not shown) (domain or fragment, Leishmania major, UniProt E9AFM3 1-52, looked up)
chain: MPSVRTMYTREELLRIATLASAMDLGPEVLRKFDVIEVAEPVPTPKRRDAES
In the case of B2, in the assay with human eIF4E, the “fold lower binding affinity than for LeishIF4E-1” value worked out at 10 fold.

B3: Leish4E-IP1_(1–52) (domain or fragment, Leishmania major, UniProt E9AFM3 1-52, looked up)
chain: MPSVRTMYTREELLRIATLASAMDLGPEVLRKFDVIEVAEPVPTPKRRDAES
Turning to B3, in assay [1], the Kd is 9.7 nM and the dH is -15.5 ± 0.282 kcal/mol.
